Key:
AAV5 [1] = molecular target: T1, AAV5 (adeno-associated virus serotype 5); experiment: SPR, AAV on CM5 chip;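 further: surface plasmon resonance with AAV amine-coupled to the chip as ligand, nanobodies injected as analyte over a concentration series, rate constants and affinity fitted from binding curves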
T1 construct: also called adeno-associated virus serotype 5
Method: (§1) AAV was amine-coupled to a CM5 sensor chip at a density of 500-800 response units (RU). Nanobodies were injected at seven concentrations (1-100 nM) with a flow rate of 45 μL/min, and chip regeneration was performed using glycine-HCl (pH 1.5). Binding curves at different nanobody concentrations were used to calculate kinetic parameters (Kₐ, Kd, KD) (Table 2 and FIG. 2).

AAV8 [2] = molecular target: T2, AAV8 (adeno-associated virus serotype 8); experiment: SPR, AAV on CM5 chip;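 further: surface plasmon resonance with AAV amine-coupled to the chip as ligand, nanobodies injected as analyte over a concentration series, rate constants and affinity fitted from binding curves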
T2 construct: also called adeno-associated virus serotype 8
Method: as §1

AAV9 [3] = molecular target: T3, AAV9 (adeno-associated virus serotype 9); experiment: SPR, AAV on CM5 chip;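 further: surface plasmon resonance with AAV amine-coupled to the chip as ligand, nanobodies injected as analyte over a concentration series, rate constants and affinity fitted from binding curves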
T3 construct: also called adeno-associated virus serotype 9
Method: as §1

AAV8 [4] = molecular target: T4, AAV8 (adeno-associated virus 8); experiment: SPR, AAV amine-coupled to CM5 chip;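 further: nanobodies flowed as analyte at seven concentrations spanning 1–100 nM over immobilized AAV (500–800 RU), kinetic constants derived by fitting the binding curves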
T4 construct: also called adeno-associated virus serotype 8
Method: as §1

AAV5 [5] = molecular target: T5, AAV5 (adeno-associated virus 5); experiment: SPR, AAV amine-coupled to CM5 chip;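 further: nanobodies flowed as analyte at seven concentrations spanning 1–100 nM over immobilized AAV (500–800 RU), kinetic constants derived by fitting the binding curves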
T5 construct: also called adeno-associated virus serotype 5
Method: as §1

AAV9 [6] = molecular target: T6, AAV9 (adeno-associated virus 9); experiment: SPR, AAV amine-coupled to CM5 chip;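 further: nanobodies flowed as analyte at seven concentrations spanning 1–100 nM over immobilized AAV (500–800 RU), kinetic constants derived by fitting the binding curves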
T6 construct: also called adeno-associated virus serotype 9
Method: as §1

AAV2 = molecular target: T7, AAV2 (adeno-associated virus 2, UniProt P03135 1-735); experiment: SPR, AAV amine-coupled to CM5 chip;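 further: nanobodies flowed as analyte at seven concentrations spanning 1–100 nM over immobilized AAV (500–800 RU), kinetic constants derived by fitting the binding curves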
T7 construct: also called adeno-associated virus serotype 2
Method: as §1

| Binder | Kd (AAV5 [1]) | koff (AAV5 [1]) | kon (AAV5 [1]) | Kd (AAV8 [2]) | koff (AAV8 [2]) | kon (AAV8 [2]) | Kd (AAV9 [3]) | koff (AAV9 [3]) | Kd (AAV8 [4]) | koff (AAV8 [4]) | kon (AAV8 [4]) | Kd (AAV5 [5]) | koff (AAV5 [5]) | kon (AAV5 [5]) | Kd (AAV9 [6]) | koff (AAV9 [6]) | kon (AAV9 [6]) | Kd (AAV2) | koff (AAV2) | kon (AAV2) | other results |
| --- | --- | --- | --- | --- | --- | --- | --- | --- | --- | --- | --- | --- | --- | --- | --- | --- | --- | --- | --- | --- | --- |
| A4-103 (VHH) VHH: VQLQESGGGLVQPGGSLRLSCAASGSIFSLNAMGWYRQAPGKQRELVATITRGGSTNYADSVKGRFTISRDNAKNTVYLQMNSLRPEDTAVYYCHVDEVRESIWTTSNLWGQGTQVTVSS | 26.9 nM | 0.00137 s⁻¹ | 51000 M⁻¹ s⁻¹ | 35.1 nM | 0.00182 s⁻¹ | 51900 M⁻¹ s⁻¹ | 81.2 nM | 0.00107 s⁻¹ |  |  |  |  |  |  |  |  |  |  |  |  | kon (AAV9 [3]): 13200 M⁻¹ s⁻¹ |
| A4-101 (VHH) VHH: VQLQESGGGLVQPGGSLRLSCAASGSRFSINIMGWYRQAPGKQRELVASVTRGGTTNYADSVKGRFTISRDNPKNTIYLQMNSLRPEDTAVYYCHVDEIRESTWTTSNLWGQGTQVTVSS | 70.8 nM | 0.00034 s⁻¹ | 4800 M⁻¹ s⁻¹ | 162 nM | 0.00129 s⁻¹ | 7970 M⁻¹ s⁻¹ | 13.4 nM | 9e-05 s⁻¹ |  |  |  |  |  |  |  |  |  |  |  |  | kon (AAV9 [3]): 6700 M⁻¹ s⁻¹ |
| A4-072 (VHH) VHH: VQLQESGGGLAQPGGSLRLSCAASGSSFVINTMGWYRQAPGKQREFVATVTRGGSTNYGEFVKGRFTISRDNAKNTVYLQMNSLRPEDTAVYYCHVDELRQSSWTTSNLWGQGTQVTVSS |  |  |  |  |  |  |  |  | 27.1 nM | 0.00044 s⁻¹ | 16300 M⁻¹ s⁻¹ | 3.79 nM | 0.00038 s⁻¹ | 100000 M⁻¹ s⁻¹ | 1.29 nM | 0.00018 s⁻¹ | 140000 M⁻¹ s⁻¹ | 3.93 nM | 0.00021 s⁻¹ | 53500 M⁻¹ s⁻¹ |  |
| A4-090 (VHH) VHH: VQLQESGGGLVQPGGSLRLSCVASGSRFIINTMGWYRQAPGKQRELVATFTRGGNTNYAESVKGRFTISRDNGKSTVYLQMNSLRPEDTAVYYCHVDEVRESTWTTSNLWGQGTQVTVSS |  |  |  |  |  |  |  |  | 14.5 nM | 0.00109 s⁻¹ | 75300 M⁻¹ s⁻¹ | 121 nM | 0.00186 s⁻¹ | 15300 M⁻¹ s⁻¹ | 24.9 nM | 0.0015 s⁻¹ | 60400 M⁻¹ s⁻¹ | 6.83 nM | 0.00136 s⁻¹ | 199000 M⁻¹ s⁻¹ |  |
| A4-088 (VHH) VHH: VQLQESGGGLVQTGGSLRLSCAASGSRFSLNTMGWYRQAPGKQRELVAAVTRGGNTNYGDFVKGRFTISRDNAKNTVYLQMNSLRPEDTAVYYCHVDELRESSWTTSNLWGQGTQVTVSS |  |  |  |  |  |  |  |  | 538 nM | 0.00454 s⁻¹ | 8440 M⁻¹ s⁻¹ | 201 nM | 0.00146 s⁻¹ | 7260 M⁻¹ s⁻¹ | 234 nM | 0.00177 s⁻¹ | 7570 M⁻¹ s⁻¹ | 2420 nM | 0.00993 s⁻¹ | 4100 M⁻¹ s⁻¹ |  |
| A4-077 (VHH) VHH: VQLQESGGGLVQPGGSLRLSCAASGSMFSINIMGWYRQAPGKQREFVATITRGGSTNYADFVKGRFTISRDNAKNTVYLQMNSLRPEDTAVYYCHVDELRDSSWTTSNLWGQGTQVTVSS |  |  |  |  |  |  |  |  | 2.92 nM | 0.00038 s⁻¹ | 130000 M⁻¹ s⁻¹ | 0.987 nM | 0.00019 s⁻¹ | 193000 M⁻¹ s⁻¹ | 1.87 nM | 0.00037 s⁻¹ | 198000 M⁻¹ s⁻¹ | 4.63 nM | 0.00046 s⁻¹ | 99300 M⁻¹ s⁻¹ |  |

From patent publication US20260193326A1 (published 2026)
